Results taken from the supplement of paper PMC10567573.

B1: INTS4 (parent)
chain: AKQIMEETYKMEFMYSGVENKQVV
B2: RHOBTB3 (parent)
chain: GGADIIVIKYNVNDKFSFHEVKDN

Variants of: B1
Assay: protein stability index of a GFP-peptide fusion (GPS, HEK-293T) (PSI 1-6); higher = more stable
Details: c terminus: a fixed tail appended
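Further: lentivirally expressed fusions sorted by FACS into six bins by GFP to DsRed ratio, PSI derived from sequencing read proportions per bin multiplied by bin number.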

Variant | protein stability index
F13Y | 2.96
F13Q | 3.12
F13G | 3.94
F13K | 3.12
F13R | 3.52
F13L | 2.26
F13A | 4.23
F13D | 4.6
F13M | 1.86
F13T | 3.57
F13P | 3.66
M14N | 1.99
M14V | 1.71
M14H | 1.87
M14E | 2.54
M14F | 1.77
M14W | 2.02
M14Q | 2.11
M14I | 1.54
M14K | 1.71
M14P | 3.88
M14D | 3.4
M14S | 1.66
I4R | 2.07

Variant | protein stability index
I4H | 2.04
I4C | 2.6
I4Y | 2.48
I4L | 1.35
I4Q | 2.3
I4M | 1.9
I4G | 2.89
V23H | 1.88
V23D | 1.68
V23I | 2.2
V23F | 1.16
V23K | 1.71
V23T | 1.46
V23A | 1.8
V23E | 1.97
Y15S | 2.15
Y15V | 1.69
Y15D | 2.37
Y15R | 2.67
Y15A | 2.57
Y15E | 2.9
Y15H | 1.88
Y15P | 3.04
Y15T | 2.08

Variant | protein stability index
Y15M | 2.54
Y15L | 3.19
Y15W | 1.67
Y15I | 2
Y15G | 1.55
Y15Q | 2.61
S16T | 1.56
S16L | 2.08
S16K | 1.7
S16Q | 1.91
S16G | 2.14
S16F | 3.1
S16Y | 1.76
S16M | 2.24
S16R | 1.36
M11W | 2.22
M11A | 1.42
M11Y | 2.68
M11N | 3.98
M11E | 3.9
M11R | 3.42
M11C | 2.43
M11D | 4.33
M11F | 2.26

Variant | protein stability index
M11H | 3.56
M11I | 3.35
M11P | 3.85
M11G | 3.28
G17H | 2.5
G17T | 1.06
G17Y | 1.84
G17Q | 2.37
G17E | 1.55
G17N | 1.48
Y9C | 2.31
Y9D | 3.83
Y9F | 2.26
Y9K | 3.57
Y9H | 3.61
Y9G | 3.84
Y9R | 3.84
Y9E | 4.34
K2Q | 2.27
K2C | 2.23
K2S | 2.44
K2N | 3.62
K2Y | 1.87
K2V | 2.04

Variant | protein stability index
K2F | 2.51
K2G | 3.06
K2H | 3.23
K2L | 2.62
K2T | 2.54
K2I | 2.81
K2E | 3.43
K2P | 2.62
K2A | 1.89
V24W | 2.33
V24Y | 2.01
V24Q | 1.89
V24D | 2.56
V24T | 1.72
V24I | 1.51
V24L | 1.73
E6D | 3.17
E6C | 1.73
E6G | 3.01
E6R | 2.48
E6S | 2.47
E6Y | 1.61
E6M | 3.07
E6P | 2.16

Variant | protein stability index
E6I | 2.61
E6A | 2.25
Q3Y | 1.84
Q3P | 2.85
Q3R | 1.7
Q3L | 1.75
Q3K | 1.96
Q3E | 2.3
Q3F | 1.97
Q3D | 2.26
Q3W | 2.53
Q3A | 2.15
Q3M | 1.51
Q3H | 1.69
Q3T | 1.85
T8S | 2.39
T8H | 2.54
T8W | 2.71
T8R | 1.84
T8A | 1.63
T8L | 2.67
Q22H | 1.98
Q22W | 1.02
Q22E | 1.48

Variant | protein stability index
Q22K | 1.47
A1V | 2.07
A1Y | 2.1
A1E | 3.37
A1N | 2.1
A1M | 1.34
A1R | 2.69
A1P | 3.02
A1I | 1.42
A1G | 2.39
N20P | 1.72
N20K | 1.46
N20V | 1.17
N20G | 2.55
N20D | 1.33
N20S | 1.44
N20Y | 1.73
N20W | 3.06
N20F | 2.86
N20L | 1.29
N20E | 2.44
N20T | 1.36
E7G | 2.1
E7V | 2.97

Variant | protein stability index
E7K | 2.55
E7S | 1.67
E7P | 2.93
E7M | 1.5
E7H | 1.7
E7D | 1.68
E7A | 2.04
E7L | 1.38
E7R | 2.55
E7C | 1.71
K10C | 1.6
K10I | 1.92
K10E | 3.15
K10F | 1.13
K10G | 2.48
K10M | 1.99
K10D | 3.55
K10T | 1.43
K10L | 1.96
K10A | 1.91
K10W | 1.96
K10H | 1.25
E19D | 1.78
E19G | 1.9

Variant | protein stability index
E19A | 2.52
E19V | 1.28
E19R | 1.95
E19P | 1.56
V18G | 2.12
V18Y | 1.9
V18P | 2.5
V18W | 1.95
V18H | 1.87
V18N | 2.02
V18S | 2.07
V18R | 1.54
V18C | 1.92
V18M | 1.75
V18A | 2.04
V18I | 1.69
V18D | 1.88
V18L | 2.12
V18T | 1.71
E12D | 2.18
E12G | 2.66
E12T | 2.33
E12P | 3.16
E12R | 2.34

Variant | protein stability index
E12V | 1.06
E12F | 1.95
E12K | 1.59
M5E | 3.67
M5I | 1.08
M5K | 3.05
M5G | 3.53
M5T | 2.98
M5C | 2.87
M5A | 3.14
M5Q | 3.25
M5S | 3.08
M5W | 2.11
M5N | 3.75
M5V | 2.2
M5L | 4.9
M5Y | 2.71
K21H | 1.75
K21S | 2.51
K21N | 2.25
K21F | 3.8
K21C | 1.92
K21M | 2.07
K21P | 2.99

Variants of: B2
Assay: as above
Details: c terminus: a fixed tail appended

Variant | protein stability index
G2F | 3.68
G2L | 1.71
G2E | 1.98
G2R | 2.76
G2A | 1.69
G2M | 3.43
G2K | 2.86
G2C | 1.97
G2Y | 2.69
G2P | 1.52
G2H | 3.5
G2D | 2.31
G2S | 1.62
G2V | 1.64
G2I | 1.52
G2T | 2.38
G2Q | 1.86
G1L | 2.44
G1Y | 2.04
G1D | 2.67
G1N | 2.96
G1I | 2.53
G1W | 1.54
G1E | 2.13

Variant | protein stability index
G1P | 2.18
G1Q | 2.37
G1M | 1.97
G1C | 2.27
G1F | 2.69
G1R | 3.04
G1A | 2.07
G1S | 3.49
G1V | 2.1
G1T | 2.99
G1K | 2.99
G1H | 2.3
I5F | 1.78
I5M | 2.68
I5Y | 1.78
I5C | 1.74
I5V | 1.43
I5P | 3.58
I5L | 3.18
I5Q | 3.45
I5G | 2.82
I5K | 2.67
I5S | 3.31
I5N | 3.69

Variant | protein stability index
I5R | 2.34
I5D | 4.15
I5W | 2.59
I5E | 3.59
I5T | 2.47
I5H | 2.39
I5A | 1.81
D4N | 2.47
D4L | 1.8
D4E | 4.16
D4F | 1.97
D4C | 2.96
D4T | 3.79
D4S | 2.66
D4G | 3.68
D4A | 2.91
D4K | 4.09
D4P | 3.07
D4H | 2.21
D4I | 3.04
D4W | 2.41
D4V | 3.66
D4R | 4.21
D4M | 3.48

Variant | protein stability index
I6F | 1.5
I6A | 3.21
I6G | 4.03
I6D | 4.07
I6C | 1.67
I6H | 2.92
I6K | 3
I6E | 3.74
A3M | 2.03
A3D | 2.85
A3F | 3.37
A3W | 2.05
A3I | 3.1
A3Y | 2.96
A3T | 2.21
A3S | 1.74
A3Q | 2.73
A3H | 3.04
A3E | 1.74
A3P | 2.35
A3L | 2.64
A3K | 2.65
